Test results from the supplement of paper PMC10126150.
± gives the standard deviation of the averaged measurements.

Tested on: ATP
Assay: switch fluorescence ratio, 500 uM ATP over buffer (Cy3 cluster intensity, sum of 5 cycles each) (fold (ratio)); higher = stronger signal-on switching upon ATP binding; sequences stand for … in TCGTCGGCAGCGTCAGATGTGTATAAGAGACAGTTTTTTTTTTTTTTTTTTTTTTTTT…TC
Settings: aptamer strand: ATP DNA aptamer (quencher-CACCTGGGGGAGTATTGCGGAGGAAGG + anchor), 100 nM annealed; ATP concentration: 500 uM
Procedure, shortened: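 Between each of five buffer/ATP cycles, the flow-cell was stripped with NaOH and re-annealed. Each cycle imaged Cy3-labelled switching-strand clusters, annealed to 100 nM quencher-labelled ATP aptamer on a modified Illumina MiSeq flow-cell, first in selection buffer and then after 15 min with 500 uM ATP at 22 °C. The fluorescence ratio is summed target-cycle over summed buffer-cycle Cy3 intensity per cluster, averaged per switch-domain sequence, with clusters outside 100-1000 RFU excluded.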
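Also: ATP exposure 15 min at 22 °C before imaging.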

| Sequence | switch fluorescence ratio |
| --- | --- |
| TACCGCGGGG | 1.04 ± 0.043 |
| TACCGGGCTT | 0.978 ± 0.02 |
| TACCGGGGTC | 1 ± 0.042 |
| TACCGGGTCT | 1.032 ± 0.005 |
| TACCGGGTTT | 0.9914 ± 0.0059 |
| TACCGTGGGT | 0.99 ± 0.021 |
| TACCGTTGGG | 1.01 ± 0.038 |
| TACCTACTCG | 1.18 ± 0.12 |
| TACCTGGGTA | 0.948 ± 0.028 |
| TACCTGGTTT | 1 ± 0.03 |
| TACGAACTTT | 1.31 ± 0.06 |
| TACGAATTTT | 1.02 ± 0.012 |
| TACGAGTGCG | 1.04 ± 0.06 |
| TACGAGTTCT | 0.984 ± 0.013 |
| TACGATTTAA | 1.01 ± 0.026 |
| TACGCGGGCA | 1.07 ± 0.11 |
| TACGCGTAAT | 1.012 ± 0.0052 |
| TACGCTGACG | 1.13 ± 0.087 |
| TACGCTTATA | 1.19 ± 0.042 |
| TACGCTTCAT | 1.02 ± 0.011 |
| TACGGAAATG | 1.0398 ± 0.00093 |
| TACGGAAGGT | 1.06 ± 0.034 |

| Sequence | switch fluorescence ratio |
| --- | --- |
| TACGGAGGGT | 1.22 ± 0.31 |
| TACGGATCGT | 0.974 ± 0.03 |
| TACGGCGTAC | 1.08 ± 0.051 |
| TACGGCTTTT | 1.01 ± 0.0062 |
| TACGGGAGCC | 1.01 ± 0.025 |
| TACGGGAGGC | 1.02 ± 0.032 |
| TACGGGCGGC | 1.05 ± 0.016 |
| TACGGGCGGG | 1.24 ± 0.17 |
| TACGGGCTTT | 1.03 ± 0.033 |
| TACGGGGACA | 1.07 ± 0.055 |
| TACGGGGAT | 1.84 ± 1.2 |
| TACGGGGCCA | 0.992 ± 0.01 |
| TACGGGGGAA | 1.26 ± 0.31 |
| TACGGGTCGA | 1.01 ± 0.016 |
| TACGGGTTAG | 1.031 ± 0.0034 |
| TACGGGTTCG | 0.99 ± 0.028 |
| TACGGTCAGC | 1.03 ± 0.016 |
| TACGGTGCAG | 0.981 ± 0.024 |
| TACGGTGGTG | 0.987 ± 0.018 |
| TACGTACGCC | 1.57 ± 0.073 |
| TACGTATACT | 1.39 ± 0.015 |
| TACGTGTAGA | 1.02 ± 0.056 |

| Sequence | switch fluorescence ratio |
| --- | --- |
| TACGTTACTC | 1.56 ± 0.018 |
| TACGTTATTT | 1.16 ± 0.027 |
| TACGTTGCAT | 1.05 ± 0.055 |
| TACGTTTAAT | 1.04 ± 0.031 |
| TACTACACAC | 1.406 ± 0.013 |
| TACTACGTAA | 2.27 ± 0.4 |
| TACTACTATT | 1.03 ± 0.016 |
| TACTACTTGC | 1.05 ± 0.0085 |
| TACTAGAGCG | 1.03 ± 0.04 |
| TACTATGTTG | 1.02 ± 0.065 |
| TACTATTGGA | 1.01 ± 0.021 |
| TACTATTTTC | 0.984 ± 0.042 |
| TACTCACGAA | 1.42 ± 0.027 |
| TACTCATGAA | 1.038 ± 0.0037 |
| TACTCGTCTA | 1.02 ± 0.018 |
| TACTCTCGGT | 1.035 ± 0.0057 |
| TACTCTTTGT | 1.015 ± 0.002 |
| TACTGAATGG | 0.997 ± 0.0051 |
| TACTGCAATT | 1.35 ± 0.22 |
| TACTGCGGTC | 0.998 ± 0.012 |
| TACTGGAAGG | 0.941 ± 0.019 |
| TACTGGACTT | 1.14 ± 0.033 |

| Sequence | switch fluorescence ratio |
| --- | --- |
| TACTGGATGA | 0.991 ± 0.029 |
| TACTGGCTAA | 1 ± 0.038 |
| TACTGGGGAC | 1.03 ± 0.035 |
| TACTGGGGGA | 1.07 ± 0.03 |
| TACTGGGTCG | 1.01 ± 0.043 |
| TACTGTACTC | 1.54 ± 0.035 |
| TACTTAAAAC | 1.011 ± 0.0078 |
| TACTTACTAG | 1.099 ± 0.01 |
| TACTTAGGTT | 0.98 ± 0.024 |
| TACTTAGTGC | 1.02 ± 0.045 |
| TACTTGAGCG | 1.02 ± 0.02 |
| TACTTGCTTC | 1.02 ± 0.038 |
| TACTTGGAAC | 1.04 ± 0.012 |
| TACTTTATTA | 1.019 ± 0.0035 |
| TAGAAACGCG | 0.983 ± 0.025 |
| TAGAAATGAT | 0.987 ± 0.033 |
| TAGAAATTGG | 1.03 ± 0.03 |
| TAGAACGTCG | 0.98 ± 0.031 |
| TAGAAGACAG | 0.996 ± 0.025 |
